Measurements as given in article doi:10.1101/2021.04.26.440876, “Fluoxetine targets an allosteric site in the enterovirus 2C AAA+ ATPase and stabilizes the hexameric complex” (bioRxiv, 2021).

Molecular target: the molecule itself
Experiment: SEC; size exclusion chromatography gel filtration profile of the MBP-tagged full-length preparation (Figure S9)

B1: MBP-tagged full-length CV-B3 2C (natural protein)
chain: NNSWLKKFTEMTNACKGMEWIAVKIQKFIEWLKVKILPEVREKHEFLNRLKQLPLLESQIATIEQSAPSQSDQEQLFSNVQYFAHYCRKYAPLYAAEAKRVFSLEKKMSNYIQFKSKCRIEPVCLLLHGSPGAGKSVATNLIGRSLAEKLNSSVYSLPPDPDHFDGYKQQAVVIMDDLCQNPDGKDVSLFCQMVSSVDFVPPMAALEEKGILFTSPFVLASTNAGSINAPTVSDSRALARRFHFDMNIEVISMYSQNGKINMPMSVKTCDDECCPVNFKKCCPLVCGKAIQFIDRRTQVRYSLDMLVTEMFREYNHRHSVGTTLEALFQ
notes: coxsackievirus B3 non-structural protein 2C (cut product of the polyprotein), full length (329 residues by the printed limits of the other constructs); source: purified
  binding result: binds
